Laboratory results published in patent US20240270846A1 (published 2024).
Numbering of substitutions follows the chain as printed. Names and notes keep the numbering of the source. One block for each binder: values may come before it.

Target: T1, CD3 epsilon homodimer protein (UniProt P07766 23-126)
T1 construct: Construct of the homodimer protein is not described; also called CD3 (CD3 epsilon)
Assay: SPR (Biacore T200), CD3 epsilon homodimer on CM4 chip, one-arm antibody as analyte; ratio to unaltered CE115HA000;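 further: surface plasmon resonance run at 25 °C with HBS-EP+ as running buffer, CD3 epsilon homodimer attached by amine coupling, antibody passed over as analyte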

T1 sequence (P07766 23-126): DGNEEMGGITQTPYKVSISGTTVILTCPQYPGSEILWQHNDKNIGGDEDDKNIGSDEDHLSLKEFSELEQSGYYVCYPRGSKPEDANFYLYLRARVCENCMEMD

B1: CE115HA000 K64D one-arm antibody (antibody, human IgG1, kappa, L234A L235A, N297A, name in Kabat numbering)
heavy: QVQLVESGGGVVQPGRSLRLSCAASGFTFSNAWMHWVRQAPGKGLEWVAQIKAKSNNYATYYAESVDGRFTISRDDSKNSLYLQMNSLKTEDTAVYYCRYVHYGAYYGVDAWGQGTTVTVSSASTKGPSVFPLAPSSKSTSGGTAALGCLVKDYFPEPVTVSWNSGALTSGVHTFPAVLQSSGLYSLSSVVTVPSSSLGTQTYICNVNHKPSNTKVDKKVEPKSCDKTHTCPPCPAPEAAGGPSVFLFPPKPKDTLMISRTPEVTCVVVDVSHEDPEVKFNWYVDGVEVHNAKTKPREEQYASTYRVVSVLTVLHQDWLNGKEYKCKVSNKALPAPIEKTISKAKGQPREPQVYTLPPSRCELTKNQVSLSCAVKGFYPSDIAVEWESNGQPENNYKTTPPVLDSDGSFFLVSKLTVDKSRWQQGNVFSCSVMHEALHNHYTQKSLSLSPDYKDDDDK
chain: EPKSSDKTHTCPPCPAPELLGGPSVFLFPPKPKDTLMISRTPEVTCVVVDVSHEDPEVKFNWYVDGVEVHNAKTKPREEQYNSTYRVVSVLTVLHQDWLNGKEYKCKVSNKALPAPIEKTISKAKGQPREPQVCTLPPSRDELTKNQVSLWCLVKGFYPSDIAVEWESNGQPENNYKTTPPVLDSDGSFFLYSKLTVDKSRWQQGNVFSCSVMHEALHNRYTQKSLSLSP
light: DIVMTQSPLSLPVTPGEPASISCRSSQSLVHSNRNTYLHWYQQKPGQAPRLLIYKVSNRFSGVPDRFSGSGSGTDFTLKISRVEAEDVGVYYCGQGTQVPYTFGQGTKLEIKRTVAAPSVFIFPPSDEQLKSGTASVVCLLNNFYPREAKVQWKVDNALQSGNSQESVTEQDSKDSTYSLSSTLTLSKADYEKHKVYACEVTHQGLSSPVTKSFNRGEC
notes: one-arm antibody
KD ratio (KD value of CE115HA000/KD value of the altered form): 0.76

B5: CE115HA000 S62P one-arm antibody (antibody, human IgG1, kappa, L234A L235A, N297A, name in Kabat numbering)
heavy: B1 heavy with S65P, D67K
chain: B1 chain
light: B1 light
notes: one-arm antibody
KD ratio (KD value of CE115HA000/KD value of the altered form): 0.77

B6: CE115HA000 S62K one-arm antibody (antibody, human IgG1, kappa, L234A L235A, N297A, name in Kabat numbering)
heavy: B1 heavy with S65K, D67K
chain: B1 chain
light: B1 light
notes: one-arm antibody
KD ratio (KD value of CE115HA000/KD value of the altered form): 0.99

B7: CE115HA000 K64Q one-arm antibody (antibody, human IgG1, kappa, L234A L235A, N297A, name in Kabat numbering)
heavy: B1 heavy with D67Q
chain: B1 chain
light: B1 light
notes: one-arm antibody
KD ratio (KD value of CE115HA000/KD value of the altered form): 0.87

B8: CE115HA000 K75R one-arm antibody (antibody, human IgG1, kappa, L234A L235A, N297A, name in Kabat numbering)
heavy: B1 heavy with D67K, K78R
chain: B1 chain
light: B1 light
notes: one-arm antibody
KD ratio (KD value of CE115HA000/KD value of the altered form): 0.88

B10: CE115HA000 N76S one-arm antibody (antibody, human IgG1, kappa, L234A L235A, N297A, name in Kabat numbering)
heavy: B1 heavy with D67K, N79S
chain: B1 chain
light: B1 light
notes: one-arm antibody
KD ratio (KD value of CE115HA000/KD value of the altered form): 0.84

B13: CE115HA000 Q105E one-arm antibody (antibody, human IgG1, kappa, L234A L235A, N297A, name in Kabat numbering)
heavy: B1 heavy with D67K, Q114E
chain: B1 chain
light: B1 light
notes: one-arm antibody
KD ratio (KD value of CE115HA000/KD value of the altered form): 0.89

B14: CE115HA000 S62D one-arm antibody (antibody, human IgG1, kappa, L234A L235A, N297A, name in Kabat numbering)
heavy: B1 heavy with S65D, D67K
chain: B1 chain
light: B1 light
notes: one-arm antibody
KD ratio (KD value of CE115HA000/KD value of the altered form): 0.87

B15: CE115HA000 S74A one-arm antibody (antibody, human IgG1, kappa, L234A L235A, N297A, name in Kabat numbering)
heavy: B1 heavy with D67K, S77A
chain: B1 chain
light: B1 light
notes: one-arm antibody
KD ratio (KD value of CE115HA000/KD value of the altered form): 0.77

B18: CE115HA000 N82aD one-arm antibody (antibody, human IgG1, kappa, L234A L235A, N297A, name in Kabat numbering)
heavy: B1 heavy with D67K, N86D
chain: B1 chain
light: B1 light
notes: one-arm antibody
KD ratio (KD value of CE115HA000/KD value of the altered form): 0.56

B19: CE115HA000 K64S one-arm antibody (antibody, human IgG1, kappa, L234A L235A, N297A, name in Kabat numbering)
heavy: B1 heavy with D67S
chain: B1 chain
light: B1 light
notes: one-arm antibody
KD ratio (KD value of CE115HA000/KD value of the altered form): 0.85

B20: CE115HA000 K75T one-arm antibody (antibody, human IgG1, kappa, L234A L235A, N297A, name in Kabat numbering)
heavy: B1 heavy with D67K, K78T
chain: B1 chain
light: B1 light
notes: one-arm antibody
KD ratio (KD value of CE115HA000/KD value of the altered form): 0.75

B22: CE115HA000 K64E one-arm antibody (antibody, human IgG1, kappa, L234A L235A, N297A, name in Kabat numbering)
heavy: B1 heavy with D67E
chain: B1 chain
light: B1 light
notes: one-arm antibody
KD ratio (KD value of CE115HA000/KD value of the altered form): 0.84

B23: CE115HA000 S62E one-arm antibody (antibody, human IgG1, kappa, L234A L235A, N297A, name in Kabat numbering)
heavy: B1 heavy with S65E, D67K
chain: B1 chain
light: B1 light
notes: one-arm antibody
KD ratio (KD value of CE115HA000/KD value of the altered form): 0.82

B29: CE115HA000 L78I one-arm antibody (antibody, human IgG1, kappa, L234A L235A, N297A, name in Kabat numbering)
heavy: B1 heavy with D67K, L81I
chain: B1 chain
light: B1 light
notes: one-arm antibody
KD ratio (KD value of CE115HA000/KD value of the altered form): 1.08

More lines, now with the values ahead:

KD ratio (KD value of CE115HA000/KD value of the altered form): 50.5
B2: CE115HA000 V95E one-arm antibody (antibody, human IgG1, kappa, L234A L235A, N297A, name in Kabat numbering)
heavy: B1 heavy with D67K, V101E
chain: B1 chain
light: B1 light
notes: one-arm antibody

KD ratio (KD value of CE115HA000/KD value of the altered form): 0.83
B3: CE115HA000 S77T one-arm antibody (antibody, human IgG1, kappa, L234A L235A, N297A, name in Kabat numbering)
heavy: B1 heavy with D67K, S80T
chain: B1 chain
light: B1 light
notes: one-arm antibody

KD ratio (KD value of CE115HA000/KD value of the altered form): 0.97
B4: CE115HA000 V100cP one-arm antibody (antibody, human IgG1, kappa, L234A L235A, N297A, name in Kabat numbering)
heavy: B1 heavy with D67K, V109P
chain: B1 chain
light: B1 light
notes: one-arm antibody

KD ratio (KD value of CE115HA000/KD value of the altered form): 3.15
B9: CE115HA000 V95A one-arm antibody (antibody, human IgG1, kappa, L234A L235A, N297A, name in Kabat numbering)
heavy: B1 heavy with D67K, V101A
chain: B1 chain
light: B1 light
notes: one-arm antibody

KD ratio (KD value of CE115HA000/KD value of the altered form): 4.61
B11: CE115HA000 V95S one-arm antibody (antibody, human IgG1, kappa, L234A L235A, N297A, name in Kabat numbering)
heavy: B1 heavy with D67K, V101S
chain: B1 chain
light: B1 light
notes: one-arm antibody

KD ratio (KD value of CE115HA000/KD value of the altered form): 0.63
B12: CE115HA000 Y100D one-arm antibody (antibody, human IgG1, kappa, L234A L235A, N297A, name in Kabat numbering)
heavy: B1 heavy with D67K, Y106D
chain: B1 chain
light: B1 light
notes: one-arm antibody

KD ratio (KD value of CE115HA000/KD value of the altered form): 64.7
B16: CE115HA000 Y97D one-arm antibody (antibody, human IgG1, kappa, L234A L235A, N297A, name in Kabat numbering)
heavy: B1 heavy with D67K, Y103D
chain: B1 chain
light: B1 light
notes: one-arm antibody

KD ratio (KD value of CE115HA000/KD value of the altered form): 0.7
B17: CE115HA000 S74P one-arm antibody (antibody, human IgG1, kappa, L234A L235A, N297A, name in Kabat numbering)
heavy: B1 heavy with D67K, S77P
chain: B1 chain
light: B1 light
notes: one-arm antibody

KD ratio (KD value of CE115HA000/KD value of the altered form): 1.31
B21: CE115HA000 V100cE one-arm antibody (antibody, human IgG1, kappa, L234A L235A, N297A, name in Kabat numbering)
heavy: B1 heavy with D67K, V109E
chain: B1 chain
light: B1 light
notes: one-arm antibody

KD ratio (KD value of CE115HA000/KD value of the altered form): 108
B24: CE115HA000 V95D one-arm antibody (antibody, human IgG1, kappa, L234A L235A, N297A, name in Kabat numbering)
heavy: B1 heavy with D67K, V101D
chain: B1 chain
light: B1 light
notes: one-arm antibody

KD ratio (KD value of CE115HA000/KD value of the altered form): 23200
B25: CE115HA000 Y97R one-arm antibody (antibody, human IgG1, kappa, L234A L235A, N297A, name in Kabat numbering)
heavy: B1 heavy with D67K, Y103R
chain: B1 chain
light: B1 light
notes: one-arm antibody

KD ratio (KD value of CE115HA000/KD value of the altered form): 1.15
B26: CE115HA000 V95K one-arm antibody (antibody, human IgG1, kappa, L234A L235A, N297A, name in Kabat numbering)
heavy: B1 heavy with D67K, V101K
chain: B1 chain
light: B1 light
notes: one-arm antibody

KD ratio (KD value of CE115HA000/KD value of the altered form): 0.92
B27: CE115HA000 Y100A one-arm antibody (antibody, human IgG1, kappa, L234A L235A, N297A, name in Kabat numbering)
heavy: B1 heavy with D67K, Y106A
chain: B1 chain
light: B1 light
notes: one-arm antibody

KD ratio (KD value of CE115HA000/KD value of the altered form): 1180
B28: CE115HA000 Y97S one-arm antibody (antibody, human IgG1, kappa, L234A L235A, N297A, name in Kabat numbering)
heavy: B1 heavy with D67K, Y103S
chain: B1 chain
light: B1 light
notes: one-arm antibody

KD ratio (KD value of CE115HA000/KD value of the altered form): 1.64
B30: CE115HA000 V100cD one-arm antibody (antibody, human IgG1, kappa, L234A L235A, N297A, name in Kabat numbering)
heavy: B1 heavy with D67K, V109D
chain: B1 chain
light: B1 light
notes: one-arm antibody

KD ratio (KD value of CE115HA000/KD value of the altered form): 12400
B31: CE115HA000 Y97P one-arm antibody (antibody, human IgG1, kappa, L234A L235A, N297A, name in Kabat numbering)
heavy: B1 heavy with D67K, Y103P
chain: B1 chain
light: B1 light
notes: one-arm antibody

KD ratio (KD value of CE115HA000/KD value of the altered form): 78300
B32: CE115HA000 V95G one-arm antibody (antibody, human IgG1, kappa, L234A L235A, N297A, name in Kabat numbering)
heavy: B1 heavy with D67K, V101G
chain: B1 chain
light: B1 light
notes: one-arm antibody
